Measured values from article PMC4960241.

Molecular target: Helicobacter pylori dimeric oxidoreductase DsbK (HP0231), native (Helicobacter pylori)
Test: SEC; size exclusion; conditions not shown (Supplementary Table S3)

- stoichiometry N: 2
Substance: Helicobacter pylori dimeric oxidoreductase DsbK (HP0231), native (enzyme)
